Substitutions are numbered along the chain they refer to.

We go through two molecules from US20260022175A1 (Chugai, published 2026).

Assay [1] deals with T1, human FcRn (human, UniProt P55899 24-290; P61769 21-119).
T1 construct: Prepared by the method of WO 2010/107110; also called hFcRn
Put plainly: SPR Biacore T200, captured Ab, pH 6.0, steady state. For orientation: SPR reads the build-up and loss of mass on a sensor chip optically.

Assay [2] has as its target T2, human FcγRIa extracellular domain with C-terminal His-tag (human, UniProt P12314 16-292).
T2 construct: extracellular domain; also called hFcγR Ia; hFcγRIa
Put plainly: SPR Biacore T200, captured Ab, pH 7.4.

Assay [3] has as its target T3, human FcγRIIa R allotype extracellular domain with C-terminal His-tag (human, UniProt P12318 34-217).
T3 construct: extracellular domain; also called hFcγR IIa R
T3 sequence (looked up): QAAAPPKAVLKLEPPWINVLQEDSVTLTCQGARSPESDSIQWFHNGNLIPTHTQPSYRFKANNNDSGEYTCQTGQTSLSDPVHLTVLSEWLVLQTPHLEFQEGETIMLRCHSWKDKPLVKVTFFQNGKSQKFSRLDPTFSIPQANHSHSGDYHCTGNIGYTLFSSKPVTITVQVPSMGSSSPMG
The experiment in a line: SPR Biacore T200, captured Ab, pH 7.4.

Assay [4] has as its target T4, human FcγRIIIa F allotype extracellular domain with C-terminal His-tag (human, UniProt P08637 17-208).
T4 construct: extracellular domain; also called hFcγR IIIa F
Put plainly: SPR Biacore T200, captured Ab, pH 7.4.

In assay [5] the target is T5, human FcγRIIIa V allotype extracellular domain with C-terminal His-tag (human, UniProt P08637 17-208).
T5 construct: extracellular domain; also called hFcγR IIIa V
T5 sequence (P08637 17-208 F176V): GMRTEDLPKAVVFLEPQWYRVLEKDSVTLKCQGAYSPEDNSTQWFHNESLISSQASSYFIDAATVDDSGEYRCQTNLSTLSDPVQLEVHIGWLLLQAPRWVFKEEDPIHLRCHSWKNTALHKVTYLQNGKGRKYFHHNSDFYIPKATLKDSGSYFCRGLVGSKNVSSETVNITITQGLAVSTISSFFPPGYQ
The experiment in a line: SPR Biacore T200, captured Ab, pH 7.4.

Assay [6] addresses T6, human FcγRIIa H allotype extracellular domain with C-terminal His-tag (human, UniProt P12318 34-217).
T6 construct: extracellular domain; also called hFcγR IIa H
T6 sequence (looked up): T3 sequence (looked up) with R134H
Put plainly: SPR Biacore T200, captured Ab, pH 7.4.

For assay [7], the target named is T2, human FcγRIa extracellular domain with …. The experiment in a line: SPR; KD of 04H1389-G1m/04L1305-k0MT divided by KD of variant.
Assay [8] addresses T3, human FcγRIIa R allotype extracellular …. The description is as above.
For assay [9], the target named is T4, human FcγRIIIa F allotype extracellular …. Described as above.
Assay [10] has as its target T5, human FcγRIIIa V allotype extracellular …. The description is as above.
Assay [11] has as its target T6, human FcγRIIa H allotype extracellular …. Described as above.
Assay [12] has as its target T1, human FcRn. The description is as above.
The target in assay [13] is T7, human FcγRIIb extracellular domain with C-terminal His-tag (human, UniProt P31994 43-217).
T7 construct: extracellular domain; also called hFcγR IIb
T7 sequence (looked up): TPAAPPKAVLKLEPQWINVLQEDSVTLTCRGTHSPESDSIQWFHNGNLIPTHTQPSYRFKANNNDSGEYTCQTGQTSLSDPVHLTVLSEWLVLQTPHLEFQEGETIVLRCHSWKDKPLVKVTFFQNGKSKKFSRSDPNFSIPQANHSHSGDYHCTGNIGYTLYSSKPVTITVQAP
Put plainly: SPR; FcγRIIb bound amount per unit captured Ab.

The target of assay [14] is T7, human FcγRIIb extracellular domain with …. Put plainly: SPR; binding amount divided by that of 04H1389-G1m/04L1305-k0MT.

T4 sequence (P08637 17-208): as the sequence (P08637 17-208 F176V) above, with V160F counted along it
T2 sequence (P12314 16-292): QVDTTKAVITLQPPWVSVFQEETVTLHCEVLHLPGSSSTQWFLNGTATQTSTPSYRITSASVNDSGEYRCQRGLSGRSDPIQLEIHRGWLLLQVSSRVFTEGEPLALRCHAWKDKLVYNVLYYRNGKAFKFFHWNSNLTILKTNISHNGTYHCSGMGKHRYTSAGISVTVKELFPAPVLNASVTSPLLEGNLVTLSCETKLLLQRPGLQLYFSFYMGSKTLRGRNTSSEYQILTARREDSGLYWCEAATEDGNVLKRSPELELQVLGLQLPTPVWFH
T1 sequence (P55899 24-290 limits assumed, chain 1 of 2): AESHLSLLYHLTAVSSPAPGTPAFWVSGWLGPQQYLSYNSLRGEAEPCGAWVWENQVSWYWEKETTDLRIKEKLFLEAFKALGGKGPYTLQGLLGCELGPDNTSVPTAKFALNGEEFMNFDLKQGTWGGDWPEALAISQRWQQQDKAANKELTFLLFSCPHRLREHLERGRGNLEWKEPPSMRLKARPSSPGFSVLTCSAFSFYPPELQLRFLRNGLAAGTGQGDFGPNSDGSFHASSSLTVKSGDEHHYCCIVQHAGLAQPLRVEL
T1 sequence (P61769 21-119 limits assumed, chain 2 of 2): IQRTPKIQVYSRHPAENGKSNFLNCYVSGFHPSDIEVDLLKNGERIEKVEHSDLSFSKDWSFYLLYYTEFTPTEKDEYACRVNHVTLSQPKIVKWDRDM

B1: 04H1389-Km473/04L1305-k0MT//04H1389-Hm451/04L1305-k0MT (antibody)
heavy 1: EVQLVESGGGLVKPGGSLRLSCAASGFTFSSKTMNWVRQAPGKGLEWVSSISTQSHYIYYAESVKGRFTISRDNAKNSLYLQMNSLRAEDTAVYYCARYGKREDMLWVFDYWGQGTLVTVSSASTKGPSVFPLAPSSKSTSGGTAALGCLVKDYFPEPVTVSWNSGALTSGVHTFPAVLQSSGLYSLSSVVTVPSSSLGTQTYICNVNHKPSNTKVDKRVEPKSCDKTHTCPPCPAPEFQWGPMVFLFPPKPKDVLMISRTPEVTCVVVDVSDEEPEVKFNWYVDGVEVHNAKTKPREEQYNATYRVVSVLPVLHQDWLNGKEYKCKVSNDALPAPIEKTISKAKGQPREPQVCTLPPSREEMTKNQVSLWCLVKGFYPSDIAVEWESNGQPENNYKTTPPVLDSDGSFFLYSKLTVDKSRWQQGNVFSCSVMHEALHAHTTRKELSLSP
heavy 2: EVQLVESGGGLVKPGGSLRLSCAASGFTFSSKTMNWVRQAPGKGLEWVSSISTQSHYIYYAESVKGRFTISRDNAKNSLYLQMNSLRAEDTAVYYCARYGKREDMLWVFDYWGQGTLVTVSSASTKGPSVFPLAPSSKSTSGGTAALGCLVKDYFPEPVTVSWNSGALTSGVHTFPAVLQSSGLYSLSSVVTVPSSSLGTQTYICNVNHKPSNTKVDKRVEPKSCDKTHTCPPCPAPELLAGPSVFLFPPKPKDVLMISRTPEVTCVVVDVSHEEPEVKFNWYVDGVEVHNAKTKPREEQYNATYRVVSVLPVLHQDWLNGKEYKCKVSNDALPAPIEETISKAKGQPREPQVYTLPPSRCEMTKNQVSLSCAVKGFYPSDIAVEWESNGQPENNYKTTPPVLDSDGSFFLVSKLTVDKSRWQQGNVFSCSVMHEALHAHTTRKELSLSP
light: DIVMTQSPLSLPVTPGEPASISCDGPSTGVGDYNYVHWYQQKPGQAPRLLIYFTSKKPSGVPDRFSGSGSGTDFTLKISRVEAEDVGVYYCQTYAAPLGPMFGQGTKLEIKRTVAAPSVFIFPPSDEQLKSGTASVVCLLNNFYPREAKVQWKVDNALQSGNSQESVTEQDSKDSTYSLSSTLTLSKADYEKHKVYACEVTHQGLSSPVTKSFNRGEC
notes: Heterodimerized antibody; also called SW1389-ART5+ACT1
By Kd is commonly meant a measure of binding affinity in units of concentration. Low values mean higher affinity, high ones lower affinity. Take B1: the dissociation constant Kd in [1] came to 330 nM; in assay [2], 0.15 nM; in assay [3] it was 160 nM; in assay [4], 17 nM; in assay [5], 3.9 nM; in [6], 53 nM. For the same molecule, the “Relative value to KD between G1m and hFcγRs” value in assay [7] came to 0.5; in assay [8], 9.7; in assay [9] it was 41.3; in assay [10], 225; in [11] it was 20. The “Relative value to KD between G1m and hFcRn” value in assay [12] came to 3. The same molecule showed a Binding amount in [13] of 0.015. For the same molecule, the Relative binding amount in [14] came out at 1.3.

B2: 04H1389-Km473/04L1305-k0MT//04H1389-Hm482/04L1305-k0MT (antibody)
heavy 1: B1 heavy 1
heavy 2: B1 heavy 2 with A335K, I337D
light: B1 light
notes: Heterodimerized antibody; also called SW1389-ART6+ACT1
Consider B2, for which the Kd in assay [1] is 370 nM; in assay [2], 0.061 nM; in assay [3], 86 nM; in assay [4], 2.7 nM; in [5], 0.95 nM; in assay [6], 35 nM. The “Relative value to KD between G1m and hFcγRs” value turned out to be 1.1 in assay [7]; 18.5 in assay [8]; 258 in [9]; 930 in assay [10]; 30.8 in assay [11]. Also, in [12], the “Relative value to KD between G1m and hFcRn” value came to 2.7. Further, the Binding amount in [13] turned out to be 0.034. Moreover, in assay [14], the Relative binding amount amounted to 3.
